We go through one molecule from patent US20130344070A1.

The target in the assay is human CCR2 (CC-Chemokine Receptor 2) (human) (UniProt P41597). As to the kind of experiment: cell-based or functional assay.
human CCR2 (CC-Chemokine Receptor 2) (human), sequence (P41597 whole entry): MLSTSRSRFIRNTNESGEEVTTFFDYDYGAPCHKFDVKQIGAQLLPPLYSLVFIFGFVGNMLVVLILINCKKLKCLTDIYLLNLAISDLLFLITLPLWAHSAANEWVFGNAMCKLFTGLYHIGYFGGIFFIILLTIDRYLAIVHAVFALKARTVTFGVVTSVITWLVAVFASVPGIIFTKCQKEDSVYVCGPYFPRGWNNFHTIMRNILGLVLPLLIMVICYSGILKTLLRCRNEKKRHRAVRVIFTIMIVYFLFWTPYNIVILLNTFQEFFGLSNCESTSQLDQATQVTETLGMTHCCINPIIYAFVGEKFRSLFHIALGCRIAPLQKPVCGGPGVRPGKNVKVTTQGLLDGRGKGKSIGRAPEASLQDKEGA

B1: MLN1202 (Takeda) (antibody, INN chains, looked up, V domains shown)
VH: EVQLVESGGGLVKPGGSLRLSCAASGFTFSAYAMNWVRQAPGKGLEWVGRIRTKNNNYATYYADSVKDRFTISRDDSKNTLYLQMNSLKTEDTAVYYCTTFYGNGVWGQGTLVTVSS
VL: DVVMTQSPLSLPVTLGQPASISCKSSQSLLDSDGKTFLNWFQQRPGQSPRRLIYLVSKLDSGVPDRFSGSGSGTDFTLKISRVEAEDVGVYYCWQGTHFPYTFGQGTRLEIK
In the case of B1, the IC50 in calcium flux assay using human THP-1 cells, ligand MCP-1 (2.5 nM) was 0.25 nM; the IC50 in calcium flux assay using human THP-1 cells, ligand MCP-3 (22 nM) came to 0.11 nM; the IC50 in calcium flux assay using human THP-1 cells, ligand MCP-5 (0.43 nM) is 0.18 nM; the IC50 in chemotaxis assay using human THP-1 cells, ligand MCP-1 (3 nM) was 0.31 nM. For the same molecule, the IC50 in chemotaxis assay using human THP-1 cells, ligand MCP-2 (6.7 nM) came to 0.46 nM; the IC50 in chemotaxis assay using human THP-1 cells, ligand MCP-3 (1.1 nM) was 1.83 nM; the IC50 in chemotaxis assay using human THP-1 cells, ligand MCP-4 (35 nM) turned out to be 0.84 nM; the IC50 in chemotaxis assay using human THP-1 cells, ligand MCP-5 (0.65 nM) came out at 0.37 nM. Moreover, the IC50 on MCP-1 induced THP-1 cell migration turned out to be 0.309 nM, the IC50 on MCP-2 induced THP-1 cell migration was 0.459 nM, the IC50 on MCP-3 induced THP-1 cell migration turned out to be 1.83 nM and the IC50 on MCP-4 induced THP-1 cell migration came to 0.843 nM. This molecule registered an IC50 on mouse MCP-5 induced THP-1 cell migration of 0.368 nM.
